Measured values reported in patent publication US10801046B2, “Methods and materials for biosynthesizing multifunctional, multivariate molecules via carbon chain modification” (INVISTA NORTH AMERICA S.A.R.L., priority 2016, dated 2020).

Legend:
[1] = Aminotransferase activity, reverse direction (7-aminoheptanoate to 7-oxoheptanoate), L-alanine formation by RP-HPLC; type: biochemical; details: cell free extract, 10 mM substrate, 25° C., 4 h, against empty vector control, FIG. 48
Protocol: (§1) A sequence encoding an N-terminal His-tag was added to the genes from Chromobacterium violaceum, Pseudomonas syringae, Rhodobacter sphaeroides, and Vibrio Fluvialis encoding the aminotransferases of SEQ ID NOs: 116 (GenBank Accession No. AAQ59697.1), 126 (GenBank Accession No. AAY39893.1), 127 (GenBank Accession No. ABA81135.1), and 128 (GenBank Accession No. AEA39183.1), respectively such that N-terminal HIS tagged aminotransferases could be produced. Each of the resulting modified genes was cloned into a pET21a expression vector under control of the T7 promoter and each expression vector was transformed into a BL21 [DE3] E. coli host. The resulting recombinant E. coli strains were cultivated at 37° C. in a 250 mL shake flask culture containing 50 mL LB media and antibiotic selection pressure, with shaking at 230 rpm. Each culture was induced overnight at 16° C. using 1 mM IPTG.
(§2) The pellet from each induced shake flask culture was harvested via centrifugation. Each pellet was resuspended and lysed via sonication. The cell debris was separated from the supernatant via centrifugation and the cell free extract was used immediately in enzyme activity assays.
Enzyme activity assays in the reverse direction (i.e., 7-aminoheptanoate to 7-oxoheptanoate) were performed in a buffer composed of a final concentration of 50 mM HEPES buffer (pH=7.5), 10 mM 7-aminoheptanoate, 10 mM pyruvate and 100 μM pyridoxyl 5′ phosphate. Each enzyme activity assay reaction was initiated by adding cell free extract of the aminotransferase gene product or the empty vector control to the assay buffer containing the 7-aminoheptanoate and incubated at 25° C. for 4 h, with shaking at 250 rpm. The formation of L-alanine from pyruvate was quantified via RP-HPLC.

[2] = Aminotransferase activity, forward direction (7-oxoheptanoate to 7-aminoheptanoate), pyruvate formation by RP-HPLC; type: biochemical; details: cell free extract, 10 mM substrate, 10 mM L-alanine, 25° C., 4 h, against empty vector control, FIG. 49
Protocol: as §1
The pellet from each induced shake flask culture was harvested via centrifugation. Each pellet was resuspended and lysed via sonication. […]
Enzyme activity in the forward direction (i.e., 7-oxoheptanoate to 7-aminoheptanoate) was confirmed for the aminotransferases of SEQ ID NO: 126 (GenBank Accession No. AAY39893.1), SEQ ID NO: 127 (GenBank Accession No. ABA81135.1), and SEQ ID NO: 128 (GenBank Accession No. AEA39183.1). […] The formation of pyruvate was quantified via RP-HPLC.

[3] = Aminotransferase activity, heptane-1,7-diamine to 7-aminoheptanal, L-alanine formation by RP-HPLC; type: biochemical; details: cell free extract, 10 mM substrate, 25° C., 4 h, against empty vector control, FIG. 50
Protocol: A sequence encoding an N-terminal His-tag was added to the Chromobacterium violaceum, Pseudomonas aeruginosa, Pseudomonas syringae, Rhodobacter sphaeroides, Escherichia coli, and Vibrio fluvialis genes encoding the aminotransferases of SEQ ID NOs: 116 (GenBank Accession No. AAQ59697.1), 119 (RefSeq Accession No. NP_417544.5), 125 (GenBank Accession No. AAGO8191.1), 126 (GenBank Accession No. AAY39893.1), 127 (GenBank Accession No. ABA81135.1), and 128 (GenBank Accession No. AEA39183.1), respectively such that N-terminal HIS tagged aminotransferases could be produced. The modified genes were cloned into a pET21a expression vector under the T7 promoter. Each expression vector was transformed into a BL21[DE3] E. coli host. Each resulting recombinant E. coli strain were cultivated at 37° C. in a 250 mL shake flask culture containing 50 mL LB media and antibiotic selection pressure, with shaking at 230 rpm. Each culture was induced overnight at 16° C. using 1 mM IPTG.
as §2
Enzyme activity assays in the reverse direction (i.e., heptane-1,7-diamine to 7-aminoheptanal) were performed in a buffer composed of a final concentration of 50 mM HEPES buffer (pH=7.5), 10 mM heptane-1,7-diamine, 10 mM pyruvate, and 100 μM pyridoxyl 5′ phosphate. Each enzyme activity assay reaction was initiated by adding cell free extract of the aminotransferase gene product or the empty vector control to the assay buffer containing the heptane-1,7-diamine and then incubated at 25° C. for 4 h, with shaking at 250 rpm. The formation of L-alanine was quantified via RP-HPLC.

[4] = Aminotransferase activity, N7-acetyl-1,7-diaminoheptane to N7-acetyl-7-aminoheptanal, L-alanine formation by RP-HPLC; type: biochemical; details: cell free extract, 10 mM substrate, 25° C., 4 h, against empty vector control, FIG. 51
Protocol: The activity of the N-terminal His-tagged aminotransferases of SEQ ID NOs: 116 (GenBank Accession No. AAQ59697.1), 119 (RefSeq Accession No. NP_417544.5), 125 (GenBank Accession No. AAGO8191.1), 126 (GenBank Accession No. AAY39893.1), 127 (GenBank Accession No. ABA81135.1), and 128 (GenBank Accession No. AEA39183.1) (see Example 6) for converting N7-acetyl-1,7-diaminoheptane to N7-acetyl-7-aminoheptanal was assayed using a buffer composed of a final concentration of 50 mM HEPES buffer (pH=7.5), 10 mM N7-acetyl-1,7-diaminoheptane, 10 mM pyruvate and 100 μM pyridoxyl 5′ phosphate. Each enzyme activity assay reaction was initiated by adding a cell free extract of the aminotransferases or the empty vector control to the assay buffer containing the N7-acetyl-1,7-diaminoheptane then incubated at 25° C. for 4 h, with shaking at 250 rpm. The formation of L-alanine was quantified via RP-HPLC.

[5] = In vivo aminotransferase activity screening, 7-aminoheptanoate by LC-MS; type: cell-based, Escherichia coli; details: in vivo conversion of 7-oxoheptanoate to 7-aminoheptanoate, 120 aminotransferases screened
Summary of the method: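 Aminotransferase library expressed in E. coli T7 Express lysY/Iq co-expressing sfp, CAR_Srot and BioC, grown overnight at 37° C in rich media with 0.4 mM IPTG and 1 g/L monomethyl heptanedioate, heptanedioate or no acid. Culture supernatants analysed by LC-MS for 7-aminoheptanoate or its monomethyl ester.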

B1: SEQ ID NO: 128: Vibrio fluvialis aminotransferase, positive control of the in vivo screen (protein, listed as Vibrio fluvialis)
chain: MNKPQSWEARAETYSLYGFTDMPSLHQRGTVVVTHGEGPYIVDVNGRRYLDANSGLWNMVAGFDHKGLIDAAKAQYERFPGYHAFFGRMSDQTVMLSEKLVEVSPFDSGRVFYTNSGSEANDTMVKMLWFLHAAEGKPQKRKILTRWNAYHGVTAVSASMTGKPYNSVFGLPLPGFVHLTCPHYWRYGEEGETEEQFVARLARELEETIQREGADTIAGFFAEPVMGAGGVIPPAKGYFQAILPILRKYDIPVISDEVICGFGRTGNTWGCVTYDFTPDAIISSKNLTAGFFPMGAVILGPELSKRLETAIEAIEEFPHGFTASGHPVGCAIALKAIDVVMNEGLAENVRRLAPRFEERLKHIAERPNIGEYRGIGFMWALEAVKDKASKTPFDGNLSVSERIANTCTDLGLICRPLGQSVVLCPPFILTEAQMDEMFDKLEKALDKVFAEVA
- acceptance of 7-aminoheptanoate as substrate [1]: accepted 7-aminoheptanote as substrate
- acceptance of 7-oxoheptanoate as substrate, forming 7-aminoheptanoate [2]: accepted 7-oxoheptanoate as a substrate
- acceptance of heptane-1,7-diamine as substrate, forming 7-aminoheptanal [3]: accepted heptane-1,7-diamine as substrate
- acceptance of N7-acetyl-1,7-diaminoheptane as substrate, forming N7-acetyl-7-aminoheptanal [4]: accepted N7-acetyl-1,7-diaminoheptane as a substrate
- 7-aminoheptanoate yield compared to the positive control (F2XBU9) [5]: higher 7-aminoheptanoate yields
